{
  "source": "paper PMC7515910",
  "about": "“Functional genetic encoding of sulfotyrosine in mammalian cells” (Nature Communications, 2020)",
  "proteins": {"B1": {"name": "evolved sTyrRS amino acid activation domain (a.a. 1-322) (enzyme, E. coli, UniProt P0AGJ9 1-322, looked up)", "chain": "MASSNLIKQLQERGLVAQVTDEEALAERLAQGPIALYCGFDPTADSLHLGHLVPLLCLKRFQQAGHKPVAVVGGATGLIGDPSFKAAERKLNTEETVQEWVDKIRKQVAPFLDFDCGENSAIAANNYDFFGNMNVLTFLRDIGKHFSVNQMINKEAVKQRLNREDQGISFTEFSYNLLQGYGFACLNKQYGVVLQIGGSDQWGNITSGIDLTRRLHQNQVFGLTVPLITKADGTKFGKTEGGAVWLDPKKTSPYKFYQFWINTADADVYRFLKFFTFMSIEEINALEEEDKNSGKAPRAQYVLAEQVTRLVHGEEGLQAAKR", "notes": "Y37 unchanged; Crystallised in complex with the small molecule sulfotyrosine (2 mM); also called sTyrRS (1-322); sTyrRS1-322; source: E. coli BL21(DE3), purified (Ni resin, Ulp1 cleavage, Superdex 200 gel filtration); not shown: 6xHis, N-terminal, cleaved; SUMO, N-terminal, cleaved"}},
  "target": "the molecule itself",
  "assay": "crystal structure; sTyrRS (a.a. 1-322, 9 mg/mL) with 2 mM sulfotyrosine; sitting drop vapor diffusion at 15 °C; ammonium sulfate (2.2 M), PEG 400 (2.5-3%), HEPES (0.1 M, pH 7.5); 1.78 Å",
  "data": [
    {"protein": "B1", "values": [
      {"measurement": "stoichiometry N", "value": 2}
    ]}
  ]
}
